This is an account of results in article PMC4990988, “Defective recognition of LC3B by mutant SQSTM1/p62 implicates impairment of autophagy as a pathogenic mechanism in ALS-FTLD” (Autophagy, 2016).

The assay concerns the target LC3B (microtubule-associated protein 1 light chain 3 β) (human, UniProt Q9GZQ8 1-120). Description: ITC; LIR peptide stock (350 µM) injected into LC3B in the cell, 298 K, 25 mM phosphate buffer, 150 mM NaCl, pH 7.5; one-site binding model. As to conditions: both partners purified. For orientation: Isothermal titration calorimetry measures the heat released or taken up as one component is titrated into another.

The term Kd denotes the free concentration of one partner at which half of the binding sites on the other are occupied at equilibrium, for simple one-to-one binding. A high value points to weaker binding.

B1: WT LIR peptide (residues 332 to 351 of human SQSTM1) (peptide)
peptide: SGGDDDWTHLSSKEVDPSTG
notes: source: synthetic peptide (PeptideSynthetics, purity > 98%)
B1 gave a Kd of 3.2 ± 1.1 µM.

B2: LIR (L341V) peptide (residues 332 to 351 of human SQSTM1 with L341V) (peptide)
peptide: SGGDDDWTHVSSKEVDPSTG
notes: SQSTM1/p62, human, residues 332 to 351 with the ALS-associated L341V mutation; also called L341V-mutant LIR; mutant LIR; source: synthetic peptide (PeptideSynthetics, purity > 98%)
Consider B2, for which binding was put at a Kd of 10.9 ± 1.1 µM.
